In article PMC2879517 (Nucleic Acids Research, 2010):

B1: DdrB from D. geothermalis labeled with SeMet (natural protein)
chain: MLHIEFITDLGAKVTVDVESADKLLDVQRQYGRLGWTSGEVPVGGYQFPLENEPDFDWSLIGARKWTNPEGEEMILHRGHAYRRRELEAVDSRKMKLPAAVKYSRGAKNTDPEHVREKADGEFEYVTLAIFRGGKRQERYAVPGSNRPQAGAPARSAATRAQGARPGAVAVQDEETPF
modifications: selenomethionine (SeMet) in place of methionine
B2: DdrB (DNA damage response B) from D. geothermalis, native, untagged (natural protein)
chain: B1 chain

How the values were obtained:
crystal structure = target: the molecule itself; test: crystal structure
SEC = target: the molecule itself; test: SEC

Protein	stoichiometry N (crystal structure)	stoichiometry N (SEC)
B1	5	
B2		5
